Measurements taken from FireProtDB (doi:10.1016/s0022-2836(03)00249-3).
Where “and” joins values, the source holds several entries; their conditions need not be identical. Identical values can stand only once.

Conditions: Saccharomyces cerevisiae (strain ATCC 204508 / S288c), 25 °C, GdnHCl, reversible: yes, whole UniProt chain shown
[1] = pH 7, Fluorescence, Tris-HCl 50 mM, NaCl 0.2 M, transition: 2
[2] = pH 7.5, Fluorescence, Tris-HCl 50 mM, NaCl 0.2 M, transition: 2
[3] = pH 7.5, Fluorescence, Tris-phosphate 50 mM, NaCl 0.2 M, transition: 2
[4] = pH 8, CD, Na2HPO4-KH2PO4 50 mM, NaCl 0.15 M, transition: 3
[5] = pH 8, Fluorescence, Na2HPO4-KH2PO4 50 mM, NaCl 0.15 M, transition: 2
[6] = pH 8, Fluorescence, Tris-HCl 50 mM, NaCl 0.2 M, transition: 2
[7] = pH 8, Fluorescence, Tris-HCl 50 mM, NaCl 0.2 M, transition: 3
[8] = pH 8.4, Fluorescence, Tris-HCl 50 mM, NaCl 0.2 M, transition: 2
[9] = pH 8.5, Fluorescence, Na2HPO4-KH2PO4 50 mM, NaCl 0.15 M, transition: 2

B1: Transcriptional regulator URE2 wild type, P23202 (protein)
chain: MMNNNGNQVSNLSNALRQVNIGNRNSNTTTDQSNINFEFSTGVNNNNNNNSSSNNNNVQNNNSGRNGSQNNDNENNIKNTLEQHRQQQQAFSDMSHVEYSRITKFFQEQPLEGYTLFSHRSAPNGFKVAIVLSELGFHYNTIFLDFNLGEHRAPEFVSVNPNARVPALIDHGMDNLSIWESGAILLHLVNKYYKETGNPLLWSDDLADQSQINAWLFFQTSGHAPMIGQALHFRYFHSQKIASAVERYTDEVRRVYGVVEMALAERREALVMELDTENAAAYSAGTTPMSQSRFFDYPVWLVGDKLTIADLAFVPWNNVVDRIGINIKIEFPEVYKWTKHMMRRPAVIKALRGE
[1]
  denaturant m value: 3.2 kcal/mol/M
  denaturant midpoint (higher = more stable): 2.4 M
  unfolding free energy: 17 kcal/mol
pH 7, Fluorescence, Tris-HCl 50 mM, NaCl 0.2 M, transition: 3
  unfolding free energy: 7.9 kcal/mol
[2]
  denaturant m value: 3.6 kcal/mol/M
  denaturant midpoint (higher = more stable): 2.64 M
  unfolding free energy: 20 kcal/mol
pH 7.5, Fluorescence, Tris-HCl 50 mM, NaCl 0.2 M, transition: 3
  unfolding free energy: 8.8 kcal/mol and 8.5 kcal/mol and 8.9 kcal/mol
[3]
  denaturant m value: 4.8 kcal/mol/M and 5.2 kcal/mol/M
  denaturant midpoint (higher = more stable): 2.66 M and 2.53 M
  unfolding free energy: 21 kcal/mol and 22 kcal/mol
pH 7.5, Fluorescence, Tris-phosphate 50 mM, NaCl 0.2 M, transition: 3
  unfolding free energy: 9 kcal/mol
[4]
  denaturant midpoint (higher = more stable): 2.33 M and 3.54 M
  unfolding free energy: 7 kcal/mol
[5]
  denaturant m value: 4 kcal/mol/M
  denaturant midpoint (higher = more stable): 2.48 M
  unfolding free energy: 19 kcal/mol
pH 8, Fluorescence, Na2HPO4-KH2PO4 50 mM, NaCl 0.15 M, transition: 3
  unfolding free energy: 6.9 kcal/mol and 6.8 kcal/mol
[6]
  denaturant m value: 3 kcal/mol/M and 4.1 kcal/mol/M and 6 kcal/mol/M
  denaturant midpoint (higher = more stable): 3 M and 2.84 M and 2.66 M
  unfolding free energy: 16 kcal/mol and 19 kcal/mol
[7]
  denaturant m value: 8 kcal/mol/M and 3 kcal/mol/M
  denaturant midpoint (higher = more stable): 3.23 M and 2.67 M
  unfolding free energy: 8 kcal/mol
[8]
  denaturant m value: 5 kcal/mol/M and 5.5 kcal/mol/M and 6.8 kcal/mol/M
  denaturant midpoint (higher = more stable): 3.06 M and 2.95 M and 2.93 M
  unfolding free energy: 23 kcal/mol and 24 kcal/mol
[9]
  denaturant m value: 5 kcal/mol/M
  denaturant midpoint (higher = more stable): 2.57 M
  unfolding free energy: 22 kcal/mol
pH 8.5, Fluorescence, Na2HPO4-KH2PO4 50 mM, NaCl 0.15 M, transition: 3
  unfolding free energy: 7.6 kcal/mol and 7.4 kcal/mol and 7.5 kcal/mol
